{"source": "patent US20030190705A1", "about": "(SUNOL MOLECULAR, published 2003)", "binders": {"B1": {"name": "hOAT (humanized IgG One Anti-Tissue Factor antibody) (antibody, V domains shown)", "VH": "QIQLVQSGGEVKKPGASVRVSCKASGYSFTDYNVYWVRQSPGKGLEWIGYIDPYNGITIYDQNLKGKATLTVDKSTSTAYMELSSLRSEDTAVYFCARDVTTALDFWGQGTTVTVSS", "VL": "DIQMTQSPASLSASVGDRVTITCLASQTIDTWLAWYLQKPGKSPQLLIYAATNLADGVPSRFSGSGSGTDFSFTISSLQPEDFATYYCQQVYSSPFTFGQGTKLEIK"}, "B2": {"name": "hFAT (humanized IgG Four Anti-Tissue Factor antibody) (antibody, V domains shown)", "VH": "QIQLVQSGGEVKKPGASVRVSCKASGYSFTDYNVYWVRQSPGKGLEWIGYIDPYNGITIYDQNLKGKATLTVDKSTSTAYMELSSLRSEDTAVYFCARDVTTALDFWGQGTTVTVSS", "VL": "DIQMTQSPASLSASVGDRVTITCLASQTIDTWLAWYLQKPGKSPQLLIYAATNLADGVPSRFSGSGSGTDFSFTISSLQPEDFATYYCQQVYSSPFTFGQGTKLEIK"}, "B3": {"name": "chimeric anti-tissue factor antibody cH36 (antibody, human IgG4, V domains shown)", "VH": "EIQLQQSGPELVKPGASVQVSCKTSGYSFTDYNVYWVRQSHGKSLEWIGYIDPYNGITIYDQNFKGKATLTVDKSSTTAFMHLNSLTSDDSAVYFCARDVTTALDFWGQGTTLTVSS", "VL": "DIQMTQSPASQSASLGESVTITCLASQTIDTWLAWYQQKPGKSPQLLIYAATNLADGVPSRFSGSGSGTKFSFKISSLQAEDFVNYYCQQVYSSPFTFGAGTKLELK"}}, "key": {"[1]": {"target": "T1, lipidated recombinant human tissue factor (e.g., Innovin) (human, UniProt P13726 33-295, limits assumed)", "experiment": "cell-based or functional assay"}, "[2]": {"target": "T1, lipidated recombinant human tissue …", "experiment": "cell-based or functional assay", "remark": "listed apart in the source"}}, "data": [{"binder": "B1", "values": [{"measurement": "PT Time (in seconds) at 12.9 nM anti-TF antibody", "setting": "[1]", "result": 18.9, "unit": "s"}, {"measurement": "PT Time (in seconds) at 25.8 nM anti-TF antibody", "setting": "[1]", "result": 33.7, "unit": "s"}, {"measurement": "PT Time (in seconds) at 51.6 nM anti-TF antibody", "setting": "[1]", "result": 82.1, "unit": "s"}, {"measurement": "inhibition of TF function (PT assay)", "setting": "[2]", "result": "~95", "unit": "%"}]}, {"binder": "B2", "values": [{"measurement": "PT Time (in seconds) at 12.9 nM anti-TF antibody", "setting": "[1]", "result": 20.5, "unit": "s"}, {"measurement": "PT Time (in seconds) at 25.8 nM anti-TF antibody", "setting": "[1]", "result": 41.7, "unit": "s"}, {"measurement": "PT Time (in seconds) at 51.6 nM anti-TF antibody", "setting": "[1]", "result": 94.8, "unit": "s"}, {"measurement": "inhibition of TF function (PT assay)", "setting": "[2]", "result": "~95", "unit": "%"}]}, {"binder": "B3", "values": [{"measurement": "PT Time (in seconds) at 12.9 nM anti-TF antibody", "setting": "[1]", "result": 19.8, "unit": "s"}, {"measurement": "PT Time (in seconds) at 25.8 nM anti-TF antibody", "setting": "[1]", "result": 40, "unit": "s"}, {"measurement": "PT Time (in seconds) at 51.6 nM anti-TF antibody", "setting": "[1]", "result": 101, "unit": "s"}, {"measurement": "inhibition of TF function (PT assay)", "setting": "[2]", "result": "~95", "unit": "%"}]}]}
